In article PMC8188212, “Multi‐Arm PEG/Peptidomimetic Conjugate Inhibitors of DR6/APP Interaction Block Hematogenous Tumor Cell Extravasation” (Advanced Science, 2021):
Square brackets hold non-standard residues; d marks the D form. Side chains are listed from the residue outwards. Ends that are not written are not given here. maleimide = maleimide: 4-arm PEG5k maleimide reacting with the C-terminal Cys thiol

T1: DR6 protein (Homo sapiens, UniProt O75509)
T1 construct: purchased Sino Biology, Inc. (Shanghai, China)
T1 sequence (O75509 42-655): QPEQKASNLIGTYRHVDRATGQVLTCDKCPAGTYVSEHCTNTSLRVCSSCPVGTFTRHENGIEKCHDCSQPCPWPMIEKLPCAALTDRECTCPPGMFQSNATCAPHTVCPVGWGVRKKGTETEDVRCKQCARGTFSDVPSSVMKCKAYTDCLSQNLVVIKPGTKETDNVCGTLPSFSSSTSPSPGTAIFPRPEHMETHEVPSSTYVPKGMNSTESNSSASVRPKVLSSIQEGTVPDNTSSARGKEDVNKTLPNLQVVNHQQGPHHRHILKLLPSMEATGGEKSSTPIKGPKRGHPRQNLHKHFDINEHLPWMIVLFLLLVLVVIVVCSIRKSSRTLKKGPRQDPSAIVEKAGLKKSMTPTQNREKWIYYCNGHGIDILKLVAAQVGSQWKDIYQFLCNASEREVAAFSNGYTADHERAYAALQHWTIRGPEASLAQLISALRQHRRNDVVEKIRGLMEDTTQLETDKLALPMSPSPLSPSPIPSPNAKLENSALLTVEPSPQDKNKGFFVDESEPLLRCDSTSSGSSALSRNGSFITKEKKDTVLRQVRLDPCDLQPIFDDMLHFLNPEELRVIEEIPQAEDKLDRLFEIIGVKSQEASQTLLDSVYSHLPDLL

T2: death receptor 6 (DR6) protein (UniProt O75509 42-349, labelled with RED-tris-NTA second-generation dye)
T2 construct: death receptor 6 (DR6), bought recombinant protein; source: bought: Sino Biology, Inc. (Shanghai, China)
T2 sequence (looked up): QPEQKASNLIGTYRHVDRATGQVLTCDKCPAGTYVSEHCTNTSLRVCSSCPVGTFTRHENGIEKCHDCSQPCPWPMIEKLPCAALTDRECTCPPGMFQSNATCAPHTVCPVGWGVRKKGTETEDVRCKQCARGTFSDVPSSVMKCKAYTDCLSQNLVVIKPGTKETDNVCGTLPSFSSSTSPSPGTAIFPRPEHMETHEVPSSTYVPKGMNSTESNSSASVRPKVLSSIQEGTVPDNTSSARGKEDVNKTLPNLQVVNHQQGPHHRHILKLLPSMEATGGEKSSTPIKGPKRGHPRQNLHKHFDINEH

T3: death receptor 6 (DR6) protein (UniProt O75509 42-349, labelled with RED-tris-NTA second-generation dye)
T3 construct: death receptor 6 (DR6), bought recombinant protein; It is probably a soluble extracellular construct, but that is a surmise; source: bought: Sino Biology
T3 sequence (looked up): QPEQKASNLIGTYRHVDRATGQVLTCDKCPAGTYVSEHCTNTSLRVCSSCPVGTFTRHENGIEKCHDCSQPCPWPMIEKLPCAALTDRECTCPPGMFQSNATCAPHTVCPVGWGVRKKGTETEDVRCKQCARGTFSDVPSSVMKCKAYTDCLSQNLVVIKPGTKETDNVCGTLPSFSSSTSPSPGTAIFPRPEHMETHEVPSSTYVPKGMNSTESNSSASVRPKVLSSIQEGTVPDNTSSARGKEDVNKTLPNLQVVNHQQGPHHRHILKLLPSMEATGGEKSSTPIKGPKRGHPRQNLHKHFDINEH


Columns and labels:
[1] = molecular target: T1, DR6 protein; experiment: KD of DR6-targeting peptides for binding to DR6 protein by MST; details: Tables S1 and S2, average of three independent experiments in triplicate, NB = No binding, read-out: KD ± SEM
Procedure: For labeling DR6 protein with Red‐tris‐NTA second‐generation dye, equal volume of DR6 protein (200 × 10^–9 M) and dye (100 × 10^–9 M) were mixed. The solution was incubated for 30 min at room temperature and centrifuged for 10 min at 4 ℃ and 15 000 × g. The DR6 protein was labeled and ready for the binding assay. Prepare 25 µL of the DR6‐targeting peptides at 20 × 10^–6 M and add 10 µL of the PBS‐T into the PCR tubes 2–12. Transfer 20 µL DR6‐targeting peptides into the PCR tube 1 and then transfer 10 µL of the DR6‐targeting peptides from tube 1 to tube 2 with a pipette and mix by pipetting up and down multiple times. Transfer 10 µL to tube 3 and mix. Repeat the procedure for tube 4–12. Add 10 µL of labeled protein to each tube (1–12) and mix by pipetting. The final DR6 protein concentration was 50× 10^−9 M. Load the capillaries and measure the samples by NanoTemper Monolith NT.015.^[ ^51 , ^52 ^]

[2] = system: HUVECs; experiment: Apoptosis analysis, annexin V-FITC/PI flow cytometry; format: cell-based, human; details: 24 h, rhTRAIL 100 ng mL^–1 as positive control
Procedure: To evaluate the number of apoptotic cells after treatment of AHP‐DRI‐12 and PEG‐tAHP‐DRI, 5 × 10^5 HUVECs were seeded in six‐well plates and treated with rhTRAIL (100 ng mL^–1, Peprotech) or AHP‐DRI‐12 and PEG‐tAHP‐DRI (0.1 × 10^–6, 1.0 × 10^–6, 10 × 10^–6 M AHP‐DRI‐12). After incubating for 24 h, HUVECs were harvested and resuspended in 100 µL binding buffer, and then stained with FITC‐labeled annexin V and propidium iodide (PI) (BD Biosciences) according to the manufacturer's instructions. The apoptotic number of HUVECs was measured by flow cytometry.

[3] = molecular target: T2, death receptor 6 (DR6) protein; experiment: MST; DR6 protein labelled with RED-tris-NTA second-generation dye, final 50 x 10^-9 M; peptide prepared at 20 x 10^-6 M, diluted serially 1:1 in PBS-T over 12 tubes and mixed with an equal volume of labelled DR6; NanoTemper Monolith NT.015; details: both partners purified
[4] = molecular target: T3, death receptor 6 (DR6) protein; experiment: MST; DR6 protein labelled with RED-tris-NTA second-generation dye, final 50 × 10^-9 M; peptides prepared at 20 × 10^-6 M and diluted serially 1:1 over 12 tubes in PBS-T; NanoTemper Monolith NT.015; details: both partners purified
[5] = molecular target: T2, death receptor 6 (DR6) protein; experiment: MST; DR6 protein labelled with RED-tris-NTA second-generation dye, final 50 x 10^-9 M; peptide prepared at 20 x 10^-6 M, diluted serially 1:1 in PBS-T over 12 tubes and mixed with an equal volume of labelled DR6; NanoTemper Monolith NT.015; details: both partners purified; remark: listed apart in the source

| Molecule | Kd [1] | Kd [3] | other results |
| --- | --- | --- | --- |
| LMTTKSD [AHP-22] | > 10000 nM | – | – |
| LPRSPLA [AHP-20] | > 10000 nM | – | – |
| MPPFRHD [AHP-19] | > 10000 nM | – | – |
| TIPKYER [AHP-15] | > 10000 nM | – | – |
| TRAIL | – | – | HUVECs undergoing apoptosis [2]: 30% |
| TTYMPKM [AHP-18] | > 10000 nM | – | – |
| YSLHASP [AHP-07] | > 10000 nM | – | – |
| YLPAPLP (heptapeptide selected from a random phage display library against DR6; source: synthetic peptide (SPPS)) [AHP-03] | – | 688 nM | – |
| [dP][dT][dT][dA][dD][dI][dT] (Peptidomimetic made of D-amino acids; source: synthetic peptide (SPPS, HPLC purified)) [AHP‐DRI‐12 (D‐retro‐inverso isomer of AHP‐12)] | – | – | Kd [4]: 225 nM |
| NGSTHER (heptapeptide selected from a random phage display library against DR6; source: synthetic peptide (SPPS)) [AHP-10] | – | 528 nM | – |
| [dP][dT][dT][dA][dD][dI][dT]C([maleimide-4‑arm PEG5k]) (other, also: four peptides on one 4-arm PEG5k, additional Cys residue at the C-terminal, coupled to the maleimide of the PEG arm; Four peptide chains on one 4-arm PEG5k, not a polypeptide oligomer; also called PEG‐tAHP‐12; PEGylated tetrameric AHP‐DRI‐12; source: synthetic peptide conjugated to 4-arm PEG5k maleimide, dialysed) [PEG‐tAHP‐DRI (tetra‐(D‐retro‐inverso isomer of AHP‐12) substitued 4‐arm PEG5k)] | – | – | Kd [4]: 51.1 nM |
| GGLSMTR (heptapeptide selected from a random phage display library against DR6; source: synthetic peptide (SPPS)) [AHP-23] | – | 4460 nM | – |
| NHQRLLP (heptapeptide selected from a random phage display library against DR6; source: synthetic peptide (SPPS)) [AHP-24] | – | 1090 nM | – |
| TIDATTP (heptapeptide selected from a random heptapeptide M13 phage display library against DR6; also called AHP-12 (TIDATTP); source: synthetic peptide (SPPS, HPLC purified)) [AHP‐12] | – | – | Kd [4]: 322 nM |
| YYSGNNL (heptapeptide selected from a random phage display library against DR6; source: synthetic peptide (SPPS)) [AHP-05] | – | 1100 nM | – |
| SHTDTNQ (heptapeptide selected from a random phage display library against DR6; source: synthetic peptide (SPPS)) [AHP-13] | – | 1150 nM | Kd [5]: 457 ± 11.6 nM |
| WTLSINS (heptapeptide selected from a random phage display library against DR6; source: synthetic peptide (SPPS)) [AHP-01] | – | 1150 nM | – |
